From article PMC10849882 (The Journal of Cell Biology, 2024) come the findings set out here.

The data set deals with the molecule itself. The data set can be described thus: negative stain EM.

B1: IMPDH1(514)-S477D (enzyme)
chain: not shown
For B1, the binding result was “binds”.

B2: IMPDH1(514)-WT (enzyme)
chain: not shown
As for B2, the binding result is “binds”.
